Data as given in patent publication US20260007756A1, “COMPOUND AND USE THEREOF” (COHERENT BIOPHARMA (SUZHOU) LIMITED, priority 2022, published 2026).
Converted amounts (≈) assume the structure as drawn. Where two headings read alike, the source gives them in different places.

Legend:
SK-OV-3 = assay: Expansion inhibition of tumor cells (Example 10, CCK-8); assay type: cell-based; details: Homo sapiens, SK-OV-3 (FOLR1 overexpression), 72 h
Method: Samples were serially diluted with medium (serially 5-fold diluted from 10 μM) to 9 concentrations. […] Negative and blank controls were set.
A CCK-8 developing solution was added at 10 μL/well (10% of the liquid volume in the wells). The plates were incubated at 37° C. for a proper time (the OD value was controlled within the range of 1.0-2.5 as possible). The plate covers were removed, and the 96-well plates were loaded on a microplate reader (Molecular Devices SpectraMax iD5) to read the measurement at 450 nm.

Solubility study in PBS = assay type: physicochemical; details: aqueous buffer, thermodynamic from solid; PBS (pH 7.2 to 7.4); read-out: Solubility, concentration
Method: The mixture was vortexed for 2 min until the solid was dissolved. The solubility was calculated as: C=m/V, C: concentration, m: sample weight, V: PBS total volume.

Plasma stability study 2 = assay type: in vitro ADME; details: mouse plasma, 37° C.
Method: • 1) The conjugate compounds were prepared into 1 mg/mL stock solutions with 0.1% TFA-acetonitrile water (1:1); • 2) 10 μL of 1 mg/mL compound stock solution was added into 90 μL of fresh plasma, and the mixture was well mixed by gentle shaking, and transferred to a thermostatic incubator at 37° C. for 0 h, 0.5 h, 1 h, 2 h, 4 h, 6 h, or 24 h of incubation; • 3) at the time points, samples were taken out and 300 μL of methanol solution (containing 10 ng/ml of terfenadine) was added for protein precipitation; • 4) the mixture was centrifuged (13 min, 4° C., 12000 rpm) and the supernatant was collected, and preserved in a −80° C. refrigerator; after collection, the samples were loaded for LC-MS analysis.

22RV1 = assay type: cell-based, human; details: 22RV1, 72 h, CellTiter-Glo
Source text: (§1) Negative and blank controls were set.

MDA-MB-231 = assay type: cell-based, human; details: MDA-MB-231, 72 h, CellTiter-Glo
Source text: as §1

BRD4 = target: T1, BRD4 (Homo sapiens, UniProt O60885); assay: Target protein degradation activity, Western Blot; assay type: cell-based
T1 construct: endogenous in cells; host or cells: MDA-MB-231, 22RV1
Method: Information on cell lines: MDA-MB-231 (human breast cancer cell) and 22RV1 (human prostate cancer cell)
• 1) A proper amount of RIPA lysis buffer was added to the Protease Inhibitor Cocktail (1:100) a few minutes before use. • 2) The medium of the cells was discarded. The cells were collected by cell scraper, centrifuged, and washed twice with pre-cooled PBS. The lysis buffer was added at 300 μL per dish. The centrifuge tube was placed on ice and mixed by pipetting for 5 min to allow the lysis buffer to fully contact the cells. • 3) After 30 min of lysis, the lysate was collected, transferred to a centrifuge tube, and centrifuged for 15 min at 12000×g to pelletize the cell debris. • 4) The supernatant was transferred to a new centrifuge tube, for subsequent Western Blot. […]
The antibody marked by HRP was coupled with an enhanced chemiluminescence reagent for chromogenesis, and the exposure was conducted via an X-ray film. The positions of the antigen-antibody (primary antibody)-antibody (secondary antibody) complex on the nitrocellulose membrane were determined by means of development, washing, and fixation. […]

β-glucosidase = details: PBS pH 6.8, 25° C.
Method: • 1) CR202AL was formulated into a 500 μg/mL stock solution with PBS (pH 6.8); • 2) 100 μL of 500 μg/mL compound stock solution was added to 775 μL of PBS (pH=6.8) before 125 μL of 100 U/mL β-glucosidase was added, and the mixture was well mixed by gentle shaking. • 3) The cleavage reaction system in step 2) was transferred to a thermostatic incubator at 25° C. for 0 h, 1 h, 2 h, 4 h, or 24 h of incubation. Samples were taken and loaded at various time points for LC-MS analysis.

C4-2 = details: C4-2, 72 h, CellTiter-Glo
Method: Cells were prepared in advance, trypsinized, collected, counted, diluted to 1.5×10^4 cells/mL in a complete cell culture medium, and plated in 96-well plates. The diluted cell suspension was added at 100 μL/well, and negative and blank control wells were set on each plate. The 96-well plates with the added cells were incubated overnight at 37° C. in a 5% CO2 incubator.
Samples were serially diluted with medium (serially 3-fold diluted from 10 μM) to 9 concentrations. The medium in the plates was discarded, and the drug solutions were added at 100 μL per well to a 96-well plate in triplicate. Negative and blank controls were set. The plates were incubated at 37° C. for 72 h in a 5% CO2 incubator.
The CellTiter-Glo buffer was thawed and warmed to room temperature, and the CellTiter-Glo substrate was warmed to room temperature. The CellTiter-Glo buffer was added to the flask containing CellTiter-Glo substrate to dissolve the substrate, thereby preparing a CellTiter-Glo working solution, which was then vortexed slowly to complete dissolution. The cell culture plates were equilibrated at room temperature for 30 min, before the CellTiter-Glo working solution was added at 50 μL/well (about half the volume of cell culture medium in each well). The plate was covered by aluminum foil to keep out of light. The culture plate was shaken on an orbital shaker for 2 min to induce cell lysis. The culture plate was left to stand at room temperature for 10 min to stabilize the luminescence signals. The luminescence signal was detected on a microplate reader (Molecular Devices SpectraMax iD5).
Four-parameter curves were fitted using GraphPad Prism 8.0.2 to give IC50 values.

## Cc1ncsc1-c1ccc(CNC(=O)C2CC(O)CN2C(=O)C(NC(=O)COCCOCCOCC(=O)NC2(C(=O)NCCCn3cc(-c4ccc(OC(F)(F)F)cc4)c4cc(CN5CCN(Cc6c(Cl)cccc6Cl)CC5)ccc43)CCNCC2)C(C)(C)C)cc1 (centres unmarked) [CR202CI]
SK-OV-3
  IC50: 0.3 nM

## Cc1ncsc1-c1ccc(CNC(=O)C2CC(O)CN2C(=O)C(NC(=O)COCCOCC(=O)NC2(C(=O)NCCCn3cc(-c4ccc(OC(F)(F)F)cc4)c4cc(CN5CCN(Cc6c(Cl)cccc6Cl)CC5)ccc43)CCNCC2)C(C)(C)C)cc1 (centres unmarked) [CR202CF]
SK-OV-3
  IC50: 31.5 nM

## CC[C@@H]1C(=O)N(C)c2cnc(Nc3ccc(-c4cn([C@H]5CC[C@@H](N(CCOCCC#Cc6cccc7c6CN(C6CCC(=O)NC6=O)C7=O)C(=O)OCc6ccc(O[C@@H]7O[C@H](C(=O)O)[C@@H](O)[C@H](O)[C@H]7O)c(NC(=O)CCNC(=O)COCCOCCn7cc(C[C@H](NC(=O)[C@H](CCCCN)NC(=O)[C@H](CC(=O)O)NC(=O)[C@H](CC(=O)O)NC(=O)Cc8ccc(CNC(=O)NCCCC[C@H](NC(=O)N[C@@H](CCC(=O)O)C(=O)O)C(=O)O)cc8)C(=O)N[C@@H](CCCCNC(=O)CC[C@H](NC(=O)c8ccc(NCc9cnc%10[nH]c(N)nc(=O)c%10n9)cc8)C(=O)O)C(N)=O)nn7)c6)CC5)nn4)cc3OC)nc2N1C1CCCC1 (some centres unmarked) [CR202AL]
Solubility study in PBS
  solubility at 2 min: 5700 µg/mL (≈ 1910 µM)
Plasma stability study 2; 0 h
  CR20274 release rate (actual release/theoretical release): 0.01%
  Residual rate of principal component: 76.04%
Plasma stability study 2; 0.5 h
  CR20274 release rate (actual release/theoretical release): 0.47%
Plasma stability study 2; 0.5 h, read-out: Residual rate of principal component
  remaining at 0.5 h, 100 μg/mL: 69.8%
Plasma stability study 2; 1 h
  CR20274 release rate (actual release/theoretical release): 0.86%
Plasma stability study 2; 1 h, read-out: Residual rate of principal component
  remaining at 1 h, 100 μg/mL: 78.1%
Plasma stability study 2; 2 h
  CR20274 release rate (actual release/theoretical release): 0.96%
Plasma stability study 2; 2 h, read-out: Residual rate of principal component
  remaining at 2 h, 100 μg/mL: 75.6%
Plasma stability study 2; 4 h
  CR20274 release rate (actual release/theoretical release): 2.60%
Plasma stability study 2; 4 h, read-out: Residual rate of principal component
  remaining at 4 h, 100 μg/mL: 74.9%
Plasma stability study 2; 6 h
  CR20274 release rate (actual release/theoretical release): 3.69%
Plasma stability study 2; 6 h, read-out: Residual rate of principal component
  remaining at 6 h, 100 μg/mL: 57.1%
Plasma stability study 2; 24 h
  CR20274 release rate (actual release/theoretical release): 28.17%
  Residual rate of principal component: 1.20%
22RV1
  IC50: 6.3 nM
MDA-MB-231
  IC50: 2.5 nM
BRD4; 3 nM over 6 h
  Degradation of BRD4 (Western Blot): almost completely degrading
BRD4; at 24 h (FIG. 4B)
  Degradation of BRD4 (Western Blot): still retain strong degradation activity
β-glucosidase; 0 h
  CR20274 release rate of CR202AL after cleavage: 5.16%
  Principal component residue of CR202AL after cleavage: 100.00%
β-glucosidase; 1 h
  CR20274 release rate of CR202AL after cleavage: 107.33%
  Principal component residue of CR202AL after cleavage: 26.70%
β-glucosidase; 2 h
  CR20274 release rate of CR202AL after cleavage: 146.03%
  Principal component residue of CR202AL after cleavage: 9.75%
β-glucosidase; 4 h
  CR20274 release rate of CR202AL after cleavage: 146.54%
  Principal component residue of CR202AL after cleavage: 4.87%
β-glucosidase; 24 h
  CR20274 release rate of CR202AL after cleavage: 100.80%
  Principal component residue of CR202AL after cleavage: 0.00%
C4-2
  IC50: 0.5 nM
